The results in this text go back to US20030220482A1 (published 2003).

In experiment [1] the target is T1, CXCR4 chemokine receptor (human, UniProt P61073 1-352).
T1 construct: whole, on cells
The experiment in a line: ^125I-SDF-1α competitive binding on CEM-T4 cells.
Method: CEM-T4 cells were harvested and washed twice with PBS. […] The incubation was terminated by separating the cells from the binding buffer by centrifugation and washing once with 500 μl of cold binding buffer. Bound ligands were quantitated by counting γ emissions.

Experiment [2] deals with T2, CCR5 chemokine receptor (UniProt P51681 1-352, limits assumed).
T2 construct: whole, on cells
Nature of the experiment: competitive binding with radiolabeled MIP-1β on CCR5-transfected 293 cells.

The target of experiment [3] is T1, CXCR4 chemokine receptor. Nature of the experiment: control in ^125I-SDF-1α competitive binding on CEM-T4 cells (FIG. 1).

T1 sequence (P61073 whole entry): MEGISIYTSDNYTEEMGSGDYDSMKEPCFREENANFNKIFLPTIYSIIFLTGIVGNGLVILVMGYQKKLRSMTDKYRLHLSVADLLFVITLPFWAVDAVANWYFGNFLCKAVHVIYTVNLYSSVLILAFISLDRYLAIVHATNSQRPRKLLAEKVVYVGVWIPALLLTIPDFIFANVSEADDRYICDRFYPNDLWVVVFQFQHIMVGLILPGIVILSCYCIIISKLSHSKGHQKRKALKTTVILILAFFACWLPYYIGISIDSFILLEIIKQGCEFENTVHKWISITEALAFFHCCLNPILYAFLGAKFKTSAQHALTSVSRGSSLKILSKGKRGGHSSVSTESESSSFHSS
T2 sequence (P51681 whole entry): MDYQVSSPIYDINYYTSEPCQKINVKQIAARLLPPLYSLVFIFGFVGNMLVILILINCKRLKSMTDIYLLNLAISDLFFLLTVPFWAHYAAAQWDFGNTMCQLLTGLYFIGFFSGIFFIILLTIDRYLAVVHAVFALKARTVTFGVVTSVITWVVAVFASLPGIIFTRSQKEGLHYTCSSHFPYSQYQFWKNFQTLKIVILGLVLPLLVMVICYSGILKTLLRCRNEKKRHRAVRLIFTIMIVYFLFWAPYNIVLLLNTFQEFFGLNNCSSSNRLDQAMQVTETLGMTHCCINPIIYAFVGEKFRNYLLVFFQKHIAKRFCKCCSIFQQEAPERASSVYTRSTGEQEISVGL

Consider LGASWHRPDK [V3 peptide (vMIP-II, 1-10)], for which the results for the binding result in experiment [1] and in experiment [2] were “binds” and “no binding”, respectively.

B1: viral Macrophage Inflammatory Protein-II (vMIP-II) (ligand)
chain: LGASWHRPDKCCLGYQKRPLPQVLLSSWYPTSQLCSKPGVIFLTKRGRQVCADKSKDWVKKLMQQLPVTAR
notes: also called native vMIP-II
Consider B1, for which, in experiment [3], the binding result was “binds”.
